Source: IntAct's records for PubMed 22575959

Molecular target: rspo1_human RSPO1 (UniProt Q2MKA7)
Sequence (Q2MKA7 whole entry): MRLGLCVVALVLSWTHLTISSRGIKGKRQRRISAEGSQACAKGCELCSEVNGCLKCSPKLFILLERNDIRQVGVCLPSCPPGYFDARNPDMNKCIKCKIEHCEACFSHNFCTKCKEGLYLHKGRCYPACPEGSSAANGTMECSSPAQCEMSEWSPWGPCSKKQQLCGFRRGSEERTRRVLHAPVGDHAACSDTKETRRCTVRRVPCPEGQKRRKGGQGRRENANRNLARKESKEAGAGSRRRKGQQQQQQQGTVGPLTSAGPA

In the case of “E3 ubiquitin-protein ligase ZNRF3 (Homo sapiens), Q9ULT6 P103A”, the “effect of a mutation on the interaction” value is reported as “disrupting interaction strength”.
